Laboratory results: patent US20140148355A1 (UNIVERSITY OF OSLO, published 2014)
Square brackets hold non-standard residues; d marks the D form. Ends that are not written are not given here. Lys(Me) = CNCCCC[C@H](N)C(=O)O

Legend:
[1] = biological target: T1, ASHH2 CW domain (13C/15N labelled, cleaved from GST with thrombin) (Arabidopsis thaliana, UniProt Q2LAE1 850-937, limits assumed, 13C and 15N isotope labelled; binds one Zn2+ through Cys868, 871, 893, 904); experiment: NMR, 15N-1H HSQC chemical shift changes, peptide:CW about 1.1:1
T1 construct: domain: CW domain; Free CW domain used for NMR; The structure is deposited as PDB 2l7p (printed '217p')
T1 sequence (looked up): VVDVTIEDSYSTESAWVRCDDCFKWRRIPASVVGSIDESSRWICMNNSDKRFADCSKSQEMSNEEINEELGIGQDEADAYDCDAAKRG

[2] = biological target: histone H3 trimethylated on lysine 4 in Arabidopsis seedling chromatin (nucleosomes) (Arabidopsis, UniProt P59226 2-136); experiment: chromatin pull-down from Arabidopsis seedlings, quantified western blot
[3] = biological target: histone H3 monomethylated on lysine 4 in Arabidopsis seedling chromatin (nucleosomes) (Arabidopsis, UniProt P59226 2-136); experiment: as above
[4] = biological target: histone H3 dimethylated on lysine 4 in Arabidopsis seedling chromatin (nucleosomes) (Arabidopsis, UniProt P59226 2-136); experiment: as above

B1: synthetic H3 peptide (residues 1-16) ARTK(me1)QTARKSTGGKAY (peptide)
peptide: ART[Lys(Me)]QTARKSTGGKAY
notes: Bought from CASLO and used for NMR at about 1.1:1 with the CW domain; also called histone H3K4me1 peptide (1-15); monomethylated H3K4 peptide
binding result [1]: binds

B2: GST-ASHH2-CW (other, Arabidopsis thaliana, UniProt Q2LAE1 850-937, looked up)
chain: VVDVTIEDSYSTESAWVRCDDCFKWRRIPASVVGSIDESSRWICMNNSDKRFADCSKSQEMSNEEINEELGIGQDEADAYDCDAAKRG
notes: domain: CW domain; Expressed in bacteria from pSXG (Eco RI/Bam HI); also called GST-CWASHH2; GST-tagged ASHH2 CW protein; not shown: glutathione-S-transferase (GST) tag encoded by the pSXG vector
bound chromatin relative to input chromatin [2]: 2.1 times of input material (2.5%) | bound chromatin relative to input chromatin [3]: 4.4 times of input material (2.5%) | bound chromatin relative to input chromatin [4]: 3.3 times of input material (2.5%)
